Test system: CDF (CDE-binding factor)
Assay: cell_activity
Details: transient transfection NIH3T3, luciferase; indirect

In the case of cdc25C promoter CDE-CHR region, the activity (fold growing/G0) is reported as 17.5.

— US6358732
